Source: patent publication US20140087995A1 (published 2014)
Numbered stars: 1 amine (or outer) side, 2 acyl side, 3 side chain; on linkers, the order of the positions; unused ones are H or OH. Bridge positions count the residues as written; N and C are the ends. Side chains are listed from the residue outwards. Ends that are not written are not given here. * marks the point of attachment. C20 diacid = O=C(O)CCCCCCCCCCCCCCCCCCC(=O)*; γGlu = O=C(O)[C@H](CCC(=O)[*:2])N[*:1]

T1: human amylin receptor (amylin 3(a) receptor: human calcitonin receptor with RAMP-3) (human, UniProt P30988 25-474; O60896 24-148, limits assumed)
T1 construct: whole, on cells; Whole cells in the luciferase assay (Assay II a); also called hAmylin-R; hAmylinR
T1 sequence (looked up) 1: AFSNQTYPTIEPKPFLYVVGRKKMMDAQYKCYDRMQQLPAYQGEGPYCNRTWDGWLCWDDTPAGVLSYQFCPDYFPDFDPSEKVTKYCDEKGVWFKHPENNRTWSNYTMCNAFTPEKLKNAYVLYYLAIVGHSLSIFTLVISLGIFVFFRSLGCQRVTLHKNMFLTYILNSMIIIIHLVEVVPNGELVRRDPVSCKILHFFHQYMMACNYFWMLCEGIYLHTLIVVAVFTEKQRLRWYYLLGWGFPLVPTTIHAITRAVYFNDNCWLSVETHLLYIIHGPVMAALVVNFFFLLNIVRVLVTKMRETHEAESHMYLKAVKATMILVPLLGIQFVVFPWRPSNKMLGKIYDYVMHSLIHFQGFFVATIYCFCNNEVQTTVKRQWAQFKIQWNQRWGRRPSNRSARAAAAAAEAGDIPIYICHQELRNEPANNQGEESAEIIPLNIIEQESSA
T1 sequence (looked up) 2: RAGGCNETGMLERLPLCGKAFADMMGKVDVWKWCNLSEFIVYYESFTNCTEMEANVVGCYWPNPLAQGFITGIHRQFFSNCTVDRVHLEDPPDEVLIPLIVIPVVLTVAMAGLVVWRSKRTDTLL

T2: human calcitonin receptor (human, UniProt P30988 25-474)
T2 sequence (looked up): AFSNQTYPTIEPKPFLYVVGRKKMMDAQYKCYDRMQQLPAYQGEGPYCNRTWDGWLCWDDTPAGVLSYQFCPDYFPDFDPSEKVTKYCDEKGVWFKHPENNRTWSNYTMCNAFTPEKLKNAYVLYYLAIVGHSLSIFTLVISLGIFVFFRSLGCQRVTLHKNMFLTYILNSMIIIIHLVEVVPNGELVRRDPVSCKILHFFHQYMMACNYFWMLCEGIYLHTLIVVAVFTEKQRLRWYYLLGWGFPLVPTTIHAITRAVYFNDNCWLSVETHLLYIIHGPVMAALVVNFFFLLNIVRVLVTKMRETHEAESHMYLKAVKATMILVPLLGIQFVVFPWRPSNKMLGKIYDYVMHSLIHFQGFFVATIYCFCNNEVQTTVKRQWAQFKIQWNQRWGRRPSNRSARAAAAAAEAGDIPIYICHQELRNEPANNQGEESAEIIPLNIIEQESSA


Key:
[1] = target: T1, human amylin receptor (amylin 3(a) …); assay: SPA competition binding on membranes of BHK cells with human calcitonin receptor + RAMP-3; displacement of 125I-rat amylin (Assay V)
Summary of the method: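 One-site competition analysis of SPA counts yielded IC₅₀ as a measure of affinity. Membranes were at 35 ng/μL final; incubation was 120 min at 25° C, pH 7.4.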

[2] = target: T2, human calcitonin receptor; assay: cell-based or functional assay

Binder | IC50 [1] [nM] | Ratio hCT/hAmylin funct. [2] [ratio] | hCTR funct. EC50 (pM) [2] [pM]
K([γGlu-C20 diacid])CNTATCATQRLADFLRHSSPNFGAIPSSTNVGPETY-NH2 (disulfide 2-7; N-terminus assumed; SMILES CC[C@H](C)[C@H](NC(=O)[C@H](C)NC(=O)CNC(=O)[C@H](Cc1ccccc1)NC(=O)[C@H](CC(N)=O)NC(=O)[C@@H]1CCCN1C(=O)[C@H](CO)NC(=O)[C@H](CO)NC(=O)[C@H](Cc1c[nH]cn1)NC(=O)[C@H](CCCNC(=N)N)NC(=O)[C@H](CC(C)C)NC(=O)[C@H](Cc1ccccc1)NC(=O)[C@H](CC(=O)O)NC(=O)[C@H](C)NC(=O)[C@H](CC(C)C)NC(=O)[C@H](CCCNC(=N)N)NC(=O)[C@H](CCC(N)=O)NC(=O)[C@@H](NC(=O)[C@H](C)NC(=O)[C@@H]1CSSC[C@H](NC(=O)[C@@H](N)CCCCNC(=O)CC[C@H](NC(=O)CCCCCCCCCCCCCCCCCCC(=O)O)C(=O)O)C(=O)N[C@@H](CC(N)=O)C(=O)N[C@@H]([C@@H](C)O)C(=O)N[C@@H](C)C(=O)N[C@@H]([C@@H](C)O)C(=O)N1)[C@@H](C)O)C(=O)N1CCC[C@H]1C(=O)N[C@@H](CO)C(=O)N[C@@H](CO)C(=O)N[C@H](C(=O)N[C@@H](CC(N)=O)C(=O)N[C@H](C(=O)NCC(=O)N1CCC[C@H]1C(=O)N[C@@H](CCC(=O)O)C(=O)N[C@H](C(=O)N[C@@H](Cc1ccc(O)cc1)C(N)=O)[C@@H](C)O)C(C)C)[C@@H](C)O) | 0.196 | 3.9 | 1120
K([γGlu-C20 diacid])CNTATCATQRLAHFLRHSSPNFGAIPSSTPVGPNTY-NH2 (disulfide 2-7; N-terminus assumed; SMILES CC[C@H](C)[C@H](NC(=O)[C@H](C)NC(=O)CNC(=O)[C@H](Cc1ccccc1)NC(=O)[C@H](CC(N)=O)NC(=O)[C@@H]1CCCN1C(=O)[C@H](CO)NC(=O)[C@H](CO)NC(=O)[C@H](Cc1c[nH]cn1)NC(=O)[C@H](CCCNC(=N)N)NC(=O)[C@H](CC(C)C)NC(=O)[C@H](Cc1ccccc1)NC(=O)[C@H](Cc1c[nH]cn1)NC(=O)[C@H](C)NC(=O)[C@H](CC(C)C)NC(=O)[C@H](CCCNC(=N)N)NC(=O)[C@H](CCC(N)=O)NC(=O)[C@@H](NC(=O)[C@H](C)NC(=O)[C@@H]1CSSC[C@H](NC(=O)[C@@H](N)CCCCNC(=O)CC[C@H](NC(=O)CCCCCCCCCCCCCCCCCCC(=O)O)C(=O)O)C(=O)N[C@@H](CC(N)=O)C(=O)N[C@@H]([C@@H](C)O)C(=O)N[C@@H](C)C(=O)N[C@@H]([C@@H](C)O)C(=O)N1)[C@@H](C)O)C(=O)N1CCC[C@H]1C(=O)N[C@@H](CO)C(=O)N[C@@H](CO)C(=O)N[C@H](C(=O)N1CCC[C@H]1C(=O)N[C@H](C(=O)NCC(=O)N1CCC[C@H]1C(=O)N[C@@H](CC(N)=O)C(=O)N[C@H](C(=O)N[C@@H](Cc1ccc(O)cc1)C(N)=O)[C@@H](C)O)C(C)C)[C@@H](C)O) | 0.082 | 4.9 | 
K([γGlu-γGlu-C20 diacid])CNTATCATQRLAEFLRHSSPNFGAIPSSTNVGSNTP-NH2 (disulfide 2-7; N-terminus assumed; SMILES CC[C@H](C)[C@H](NC(=O)[C@H](C)NC(=O)CNC(=O)[C@H](Cc1ccccc1)NC(=O)[C@H](CC(N)=O)NC(=O)[C@@H]1CCCN1C(=O)[C@H](CO)NC(=O)[C@H](CO)NC(=O)[C@H](Cc1c[nH]cn1)NC(=O)[C@H](CCCNC(=N)N)NC(=O)[C@H](CC(C)C)NC(=O)[C@H](Cc1ccccc1)NC(=O)[C@H](CCC(=O)O)NC(=O)[C@H](C)NC(=O)[C@H](CC(C)C)NC(=O)[C@H](CCCNC(=N)N)NC(=O)[C@H](CCC(N)=O)NC(=O)[C@@H](NC(=O)[C@H](C)NC(=O)[C@@H]1CSSC[C@H](NC(=O)[C@@H](N)CCCCNC(=O)CC[C@H](NC(=O)CC[C@H](NC(=O)CCCCCCCCCCCCCCCCCCC(=O)O)C(=O)O)C(=O)O)C(=O)N[C@@H](CC(N)=O)C(=O)N[C@@H]([C@@H](C)O)C(=O)N[C@@H](C)C(=O)N[C@@H]([C@@H](C)O)C(=O)N1)[C@@H](C)O)C(=O)N1CCC[C@H]1C(=O)N[C@@H](CO)C(=O)N[C@@H](CO)C(=O)N[C@H](C(=O)N[C@@H](CC(N)=O)C(=O)N[C@H](C(=O)NCC(=O)N[C@@H](CO)C(=O)N[C@@H](CC(N)=O)C(=O)N[C@H](C(=O)N1CCC[C@H]1C(N)=O)[C@@H](C)O)C(C)C)[C@@H](C)O, also called compound 13) | 0.264 | 2.2 | 
K([γGlu-C20 diacid])CNTATCATQRLAHFLRHSSPNFGAIPSSTNVGPNTP-NH2 (disulfide 2-7; N-terminus assumed; SMILES CC[C@H](C)[C@H](NC(=O)[C@H](C)NC(=O)CNC(=O)[C@H](Cc1ccccc1)NC(=O)[C@H](CC(N)=O)NC(=O)[C@@H]1CCCN1C(=O)[C@H](CO)NC(=O)[C@H](CO)NC(=O)[C@H](Cc1c[nH]cn1)NC(=O)[C@H](CCCNC(=N)N)NC(=O)[C@H](CC(C)C)NC(=O)[C@H](Cc1ccccc1)NC(=O)[C@H](Cc1c[nH]cn1)NC(=O)[C@H](C)NC(=O)[C@H](CC(C)C)NC(=O)[C@H](CCCNC(=N)N)NC(=O)[C@H](CCC(N)=O)NC(=O)[C@@H](NC(=O)[C@H](C)NC(=O)[C@@H]1CSSC[C@H](NC(=O)[C@@H](N)CCCCNC(=O)CC[C@H](NC(=O)CCCCCCCCCCCCCCCCCCC(=O)O)C(=O)O)C(=O)N[C@@H](CC(N)=O)C(=O)N[C@@H]([C@@H](C)O)C(=O)N[C@@H](C)C(=O)N[C@@H]([C@@H](C)O)C(=O)N1)[C@@H](C)O)C(=O)N1CCC[C@H]1C(=O)N[C@@H](CO)C(=O)N[C@@H](CO)C(=O)N[C@H](C(=O)N[C@@H](CC(N)=O)C(=O)N[C@H](C(=O)NCC(=O)N1CCC[C@H]1C(=O)N[C@@H](CC(N)=O)C(=O)N[C@H](C(=O)N1CCC[C@H]1C(N)=O)[C@@H](C)O)C(C)C)[C@@H](C)O) | 0.131 | 0.8 | 
K([γGlu-γGlu-C20 diacid])CNTATCATQRLAEFLRHSSPNFGAIPSSTNVGPETP-NH2 (disulfide 2-7; N-terminus assumed; SMILES CC[C@H](C)[C@H](NC(=O)[C@H](C)NC(=O)CNC(=O)[C@H](Cc1ccccc1)NC(=O)[C@H](CC(N)=O)NC(=O)[C@@H]1CCCN1C(=O)[C@H](CO)NC(=O)[C@H](CO)NC(=O)[C@H](Cc1c[nH]cn1)NC(=O)[C@H](CCCNC(=N)N)NC(=O)[C@H](CC(C)C)NC(=O)[C@H](Cc1ccccc1)NC(=O)[C@H](CCC(=O)O)NC(=O)[C@H](C)NC(=O)[C@H](CC(C)C)NC(=O)[C@H](CCCNC(=N)N)NC(=O)[C@H](CCC(N)=O)NC(=O)[C@@H](NC(=O)[C@H](C)NC(=O)[C@@H]1CSSC[C@H](NC(=O)[C@@H](N)CCCCNC(=O)CC[C@H](NC(=O)CC[C@H](NC(=O)CCCCCCCCCCCCCCCCCCC(=O)O)C(=O)O)C(=O)O)C(=O)N[C@@H](CC(N)=O)C(=O)N[C@@H]([C@@H](C)O)C(=O)N[C@@H](C)C(=O)N[C@@H]([C@@H](C)O)C(=O)N1)[C@@H](C)O)C(=O)N1CCC[C@H]1C(=O)N[C@@H](CO)C(=O)N[C@@H](CO)C(=O)N[C@H](C(=O)N[C@@H](CC(N)=O)C(=O)N[C@H](C(=O)NCC(=O)N1CCC[C@H]1C(=O)N[C@@H](CCC(=O)O)C(=O)N[C@H](C(=O)N1CCC[C@H]1C(N)=O)[C@@H](C)O)C(C)C)[C@@H](C)O) | 0.533 | 0.8 | 102
K([γGlu-C20 diacid])CNTATCATQRLAEFLRHSSPNFGAIPSSTNVGPNTP-NH2 (disulfide 2-7; N-terminus assumed; SMILES CC[C@H](C)[C@H](NC(=O)[C@H](C)NC(=O)CNC(=O)[C@H](Cc1ccccc1)NC(=O)[C@H](CC(N)=O)NC(=O)[C@@H]1CCCN1C(=O)[C@H](CO)NC(=O)[C@H](CO)NC(=O)[C@H](Cc1c[nH]cn1)NC(=O)[C@H](CCCNC(=N)N)NC(=O)[C@H](CC(C)C)NC(=O)[C@H](Cc1ccccc1)NC(=O)[C@H](CCC(=O)O)NC(=O)[C@H](C)NC(=O)[C@H](CC(C)C)NC(=O)[C@H](CCCNC(=N)N)NC(=O)[C@H](CCC(N)=O)NC(=O)[C@@H](NC(=O)[C@H](C)NC(=O)[C@@H]1CSSC[C@H](NC(=O)[C@@H](N)CCCCNC(=O)CC[C@H](NC(=O)CCCCCCCCCCCCCCCCCCC(=O)O)C(=O)O)C(=O)N[C@@H](CC(N)=O)C(=O)N[C@@H]([C@@H](C)O)C(=O)N[C@@H](C)C(=O)N[C@@H]([C@@H](C)O)C(=O)N1)[C@@H](C)O)C(=O)N1CCC[C@H]1C(=O)N[C@@H](CO)C(=O)N[C@@H](CO)C(=O)N[C@H](C(=O)N[C@@H](CC(N)=O)C(=O)N[C@H](C(=O)NCC(=O)N1CCC[C@H]1C(=O)N[C@@H](CC(N)=O)C(=O)N[C@H](C(=O)N1CCC[C@H]1C(N)=O)[C@@H](C)O)C(C)C)[C@@H](C)O) | 0.214 | 0.9 | 
